Data published in PMC3928684 (Biotechnology and bioengineering, 2009).

T1: LovD (simvastatin synthase) (Aspergillus terreus, UniProt Q9Y7D1)
T1 sequence (Q9Y7D1 1-413): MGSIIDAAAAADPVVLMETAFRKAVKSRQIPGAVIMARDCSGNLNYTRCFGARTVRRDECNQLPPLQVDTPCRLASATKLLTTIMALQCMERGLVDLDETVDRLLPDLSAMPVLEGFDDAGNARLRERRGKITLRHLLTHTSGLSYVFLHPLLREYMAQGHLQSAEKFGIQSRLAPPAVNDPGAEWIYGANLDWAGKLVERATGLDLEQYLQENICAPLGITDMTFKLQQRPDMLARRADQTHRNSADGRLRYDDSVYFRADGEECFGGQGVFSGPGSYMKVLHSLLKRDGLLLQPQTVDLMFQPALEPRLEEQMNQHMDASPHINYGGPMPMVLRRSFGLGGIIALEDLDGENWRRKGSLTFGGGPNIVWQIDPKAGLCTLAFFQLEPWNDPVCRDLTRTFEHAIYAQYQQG

B1: LovD (simvastatin synthase) (Aspergillus terreus) (protein)
chain: T1 sequence (Q9Y7D1 1-413)

Key:
CCC(C)(C)C(=O)SCCC(=O)OC = experiment: purified protein; format: biochemical, Aspergillus terreus; conditions: MJSS fixed at 2 mM, DMB-S-MMP 0.25-5 mM; 10% DMSO
[1] = tested on: C[C@H]1C=C2C=C[C@H](C)[C@H](CC[C@@H](O)C[C@@H](O)CC(=O)O)[C@H]2[C@@H](O)C1; experiment: purified protein; format: biochemical, Aspergillus terreus; conditions: DMB-S-MMP fixed at 2 mM, MJSS 0.25-5 mM; 10% DMSO
[2] = target: T1, LovD (simvastatin synthase); experiment: HPLC at […] nm, conversion of MJSS to simvastatin sodium salt; format: biochemical; conditions: read-out: Wild Type; MJSS fixed at 2 mM, DMB-S-MMP 0.25-5 mM; 10% DMSO
purified protein = substrate: C[C@H]1C=C2C=C[C@H](C)[C@H](CC[C@@H](O)C[C@@H](O)CC(=O)O)[C@H]2[C@@H](O)C1; experiment: purified protein; format: biochemical, Aspergillus terreus; conditions: DMB-S-MMP fixed at 2 mM, MJSS 0.25-5 mM; 10% DMSO; remark: listed apart in the source

Molecule | Km (CCC(C)(C)C(=O)SCCC(=O)OC) [µM] | Km [1] [µM] | kcat [1] [s⁻¹] | Km [2] [µM] | Km (purified protein) [µM] | kcat (purified protein) [s⁻¹]
LovD (simvastatin synthase) (Aspergillus terreus; C40A/C60N) | 610 ± 30 | 820 ± 100 | 0.01 ± 0.00033 |  |  | 
LovD (simvastatin synthase) (Aspergillus terreus; C60A) | 580 ± 30 | 810 ± 190 | 0.01 ± 0.00067 |  |  | 
LovD (simvastatin synthase) (Aspergillus terreus; C40A) | 630 ± 60 | 800 ± 210 | 0.0103 ± 0.00083 |  |  | 
CCC(C)(C)C(=O)SCCC(=O)OC [DMB-S-MMP, α-dimethylbutyryl-S-methyl-3-mercaptopropionate] |  |  |  | 670 ± 40 |  | 
B1 |  |  |  |  | 780 ± 120 | 0.0103 ± 0.0005
